One molecule from article doi:10.1101/2021.02.26.432832 (bioRxiv, 2021) can be followed below.

The assay concerns the target recombinant, reconstituted histone H3/H4 tetramers (Xenopus laevis, UniProt P84233;P62799). Kind of assay: pull-down.

B1: GST-tagged full-length Ioc4 (natural protein)
chain: MSEAIFQPTDIVLAKVKGFSAWPAMIIPNELIPDNILKTKPVSVHKGKSGSDKKANEDIDADMESEARDREQSEEEEDIEDFGESEANPEKFIIYTPVLKFRKNDTLKSTYCVKFFCDDSYIWVKPMDMKILTSEDCRKWLSGKQRKNKKLIPAYEMAMRGKNGIDIWEFVEYGSYGKPDEEEYVEEEEEENEPEKKAIRPTRSSSRQRQKRASETEKSEGGNSNKRKRVTRSTRQQAIDASEEEEEEEEEKVQEAVRKRPQRTKTKKVVVSKTKPNPKTKAKKEKPKPPKPIKYHFEDDEDWSIVGLGPQDLSIEKTMDPIAKKLSQKKNLEKHVEIKLDLEDKLAGINKLLCDVLCSAINQAVSIKDDFEIILDELQIALDTRGSRNEFITIFQSNNSLLLNFRILFNLRKRELNKWDLWDRFQDIFKHIYSYQFIPDTEDWQLEQNMEIEEMDREKPSFSEDVKEEESKVGA
For B1, the binding result was “binds”.
